Source: publication PMC11848828
pKd: −log10 of the molar value.

How the values were obtained:
[1] = biological target: Human 14-3-3ζ protein (human) (UniProt P63104); test: ITC
[2] = biological target: Human 14-3-3ζ protein (human) (UniProt P63104); test: real-time 1D 1H NMR

Chain of UniProt P63104 (P63104 whole entry): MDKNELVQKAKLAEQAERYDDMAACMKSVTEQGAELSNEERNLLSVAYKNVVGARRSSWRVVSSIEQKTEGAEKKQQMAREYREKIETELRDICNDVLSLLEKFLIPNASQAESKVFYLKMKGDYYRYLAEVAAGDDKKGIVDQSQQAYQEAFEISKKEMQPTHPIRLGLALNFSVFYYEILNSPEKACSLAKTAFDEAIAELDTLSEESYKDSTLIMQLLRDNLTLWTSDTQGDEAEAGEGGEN

Substance	pKd [1]	dH [1] [kcal/mol]	further results
PRLR W392Y variant peptide		-4.88	Kd, two-sets-of-sites model, first set [1]: 0.4 µM; Kd, two-sets-of-sites model, second set [1]: 2.3 µM; dH of the cis proline isomer [1]: -4.64 kcal/mol; dH of the trans proline isomer [1]: -5.4 kcal/mol
PRLR P393V variant peptide	4.55	-3.08	
PRLR W392L variant peptide	4.89		

Continued, in another order:

pKd [1]	dH [1] [kcal/mol]	Substance	further results
5.40	-8.17	PRLR W392A variant peptide	
	-5.62	PRLR WT peptide (21-residue phosphorylated fragment of the human prolactin receptor intracellular domain, pThr391)	concentration of the cis isomer bound instantly (t0) [2]: 101 µM
